Source: paper PMC5107993, “Glutathione-conjugating and membrane-remodeling activity of GDAP1 relies on amphipathic C-terminal domain” (Scientific Reports, 2016)

B1: GDAP1 T318X-6xHis (domain or fragment, human, UniProt Q8TB36 1-317, looked up)
chain: MAERQEEQRGSPPLRAEGKADAEVKLILYHWTHSFSSQKVRLVIAEKALKCEEHDVSLPLSEHNEPWFMRLNSTGEVPVLIHGENIICEATQIIDYLEQTFLDERTPRLMPDKESMYYPRVQHYRELLDSLPMDAYTHGCILHPELTVDSMIPAYATTRIRSQIGNTESELKKLAEENPDLQEAYIAKQKRLKSKLLDHDNVKYLKKILDELEKVLDQVETELQRRNEETPEEGQQPWLCGESFTLADVSLAVTLHRLKFLGFARRNWGNGKRPNLETYYERVLKRKTFNKVLGHVNNILISAVLPTAFRVAKKRAP
notes: GDAP1, human (recombinant human GDAP1), truncated by a stop in place of T318 (T318X), lacks the TMD, keeps HD1; cloned into vector pFL of the MultiBac system; the methods print the name as T3188X; also called GDAP1 T3188X; not shown: His6, C-terminal, kept
B2: GDAP1 T288X-6xHis (domain or fragment, human, UniProt Q8TB36 1-287, looked up)
chain: MAERQEEQRGSPPLRAEGKADAEVKLILYHWTHSFSSQKVRLVIAEKALKCEEHDVSLPLSEHNEPWFMRLNSTGEVPVLIHGENIICEATQIIDYLEQTFLDERTPRLMPDKESMYYPRVQHYRELLDSLPMDAYTHGCILHPELTVDSMIPAYATTRIRSQIGNTESELKKLAEENPDLQEAYIAKQKRLKSKLLDHDNVKYLKKILDELEKVLDQVETELQRRNEETPEEGQQPWLCGESFTLADVSLAVTLHRLKFLGFARRNWGNGKRPNLETYYERVLKRK
notes: GDAP1, human (recombinant human GDAP1), truncated by a stop in place of T288 (T288X), lacks TMD and HD1; cloned into vector pFL of the MultiBac system; not shown: His6, C-terminal, kept

Biological target: the molecule itself
Assay: SEC; Superdex 200 10/300 in 20 mM Tris pH 8.0, 100 mM NaCl, 1 mM DTT, 1 mM EDTA; peak fractions re-chromatographed under identical conditions; monomer to dimer

| Protein | stoichiometry N |
| --- | --- |
| B1 | 2 |
| B2 | 2 |
